From patent US20190255141 (published 2019)
Ends that are not written are not given here.

Assays:
[1] = target: trypsin
[2] = target: T1, human furin (human, UniProt P09958); assay: other, pH 7.0, 37C
[3] = target: T1, human furin; assay: other, pH 7.0, 37C; remark: listed apart in the source

T1 sequence (P09958 108-715): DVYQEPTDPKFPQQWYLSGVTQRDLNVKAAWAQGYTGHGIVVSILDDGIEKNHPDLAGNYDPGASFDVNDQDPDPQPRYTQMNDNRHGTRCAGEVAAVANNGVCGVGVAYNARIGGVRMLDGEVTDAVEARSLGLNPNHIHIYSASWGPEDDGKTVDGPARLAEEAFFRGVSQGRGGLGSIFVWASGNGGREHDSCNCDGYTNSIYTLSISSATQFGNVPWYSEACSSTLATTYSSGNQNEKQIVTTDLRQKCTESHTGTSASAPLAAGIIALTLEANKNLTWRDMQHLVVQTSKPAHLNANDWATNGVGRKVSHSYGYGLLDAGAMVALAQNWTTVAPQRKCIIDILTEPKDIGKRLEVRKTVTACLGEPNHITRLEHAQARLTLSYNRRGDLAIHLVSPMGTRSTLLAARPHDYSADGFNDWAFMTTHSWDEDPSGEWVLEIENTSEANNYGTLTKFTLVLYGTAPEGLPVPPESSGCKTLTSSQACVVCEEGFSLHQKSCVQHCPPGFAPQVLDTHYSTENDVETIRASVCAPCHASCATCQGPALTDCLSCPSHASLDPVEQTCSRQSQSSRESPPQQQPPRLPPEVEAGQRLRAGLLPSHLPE

Row | Binder | Ki [1] [µM] | Ki [2] [µM] | binding result [3]
1 | KAAAK (not fully specified (N-terminus, C-terminus); printed as C16-KAAAK-C16) [C16-KAAAK-C16] | 40.3 | 1.72 | –
2 | KGGGK (not fully specified) [C16-KGGGK-C16] | 11.1 | – | –
3 | Lys-Ala-Lys (not fully specified (N-terminus, C-terminus); printed as C16-KAK-C16) [C16-KAK-C16] | 15.2 | 0.54 | –
4 | KAAK (not fully specified (N-terminus, C-terminus); printed as C16-KAAK-C16) [C16-KAAK-C16] | – | 0.97 | –
5 | KAAAAK (not fully specified) [C16-KAAAAK-C16] | – | 1.75 | –
6 | Lys-Gly-Lys (not fully specified (N-terminus, C-terminus); printed as C16-KGK-C16) [C16-KGK-C16] | 41.6 | – | –
7 | Lys-Lys (not fully specified (N-terminus, C-terminus); printed as C16-KK-C16) [C16-KK-C16] | 84.7 | – | no binding
